Test results as given in IntAct's records for PubMed 31515488.

B1: Protein NOXP20 (Homo sapiens), Q8IWE2 (parent)
chain: MSDDAGDTLATGDKAEVTEMPNSDSLPEDAEVHCDSAAVSHEPTPADPRGEGHENAAVQGAGAAAIGPPVQPQDANALEPPLNGDVTEDTLAECIDSVSLEAEPRSEIPLQEQNYLAVDSPPSGGGWAGWGSWGKSLLSSASATVGHGLTAVKEKAGATLRIHGVNSGSSEGAQPNTENGVPEITDAATDQGPAESPPTSPSSASRGMLSAITNVVQNTGKSVLTGGLDALEFIGKKTMNVLAESDPGFKRTKTLMERTVSLSQMLREAKEKEKQRLAQQLTMERTAHYGMLFDEYQGLSHLEALEILSNESESKVQSFLASLDGEKLELLKNDLISIKDIFAAKELENEENQEEQGLEEKGEEFARMLTELLFELHVAATPDKLNKAMKRAHDWVEEDQTVVSVDVAKVSEEETKKEEKEEKSQDPQEDKKEEKKTKTIEEVYMSSIESLAEVTARCIEQLHKVAELILHGQEEEKPAQDQAKVLIKLTTAMCNEVASLSKKFTNSLTTVGSNKKAEVLNPMISSVLLEGCNSTTYIQDAFQLLLPVLQVSHIQTSCLKAQP
B2: SH2 domain-containing protein 4A (Homo sapiens), Q9H788 (parent)
chain: MLKQILSEMYIDPDLLAELSEEQKQILFFKMREEQIRRWKEREAAMERKESLPVKPRPKKENGKSVHWKLGADKEVWVWVMGEHHLDKPYDVLCNEIIAERARLKAEQEAEEPRKTHSEEFTNSLKTKSQYHDLQAPDNQQTKDIWKKVAEKEELEQGSRPAPTLEEEKIRSLSSSSRNIQQMLADSINRMKAYAFHQKKESMKKKQDEEINQIEEERTKQICKSWKEDSEWQASLRKSKAADEKRRSLAKQAREDYKRLSLGAQKGRGGERLQSPLRVPQKPERPPLPPKPQFLNSGAYPQKPLRNQGVVRTLSSSAQEDIIRWFKEEQLPLRAGYQKTSDTIAPWFHGILTLKKANELLLSTGMPGSFLIRVSERIKGYALSYLSEDGCKHFLIDASADAYSFLGVDQLQHATLADLVEYHKEEPITSLGKELLLYPCGQQDQLPDYLELFE
B3: EF-hand domain-containing family member C2 (Homo sapiens), Q5JST6 (parent)
chain: MALPLLPGNSFNRNVGKEKFHKSQHWGFCNNVMMLVSDEKPGIGGEPLLGQKIKPKCSIYPKGDGSDVPSWVAFDKQVLSFDAYLEEEVLDKSQTNYRIRYYKIYFYPEDDTIQVNEPEVKNSGLLQGTSIRRHRITLPPPDEDQFYTVYHFNVGTEVVFYGRTFKIYDCDAFTRNFLRKIGVKVNPPVQCPEDPYMKIRREVVEHVEPLRPYESLDTLKQFLQYHGKILCFFCLWDDSVSMFGDRRELILHYFLCDDTIEIKELLPHSSGRDALKMFLRRSKLPKNCPPRVYQPGQITDRAVLNSYGDFIKNQADGYLFDRYKLGKVDQEFYKDSDLSLGVTINVWGRKVLLYDCDEFTKSYYKSKYGIENFTSVSCKPPSPPPKIERKFPPYNGFGSEEDSLRNCIDLKPTPHRRNFKKFMEKDSYGSKSNILRFFAKLVTDKCVDLDRMFVISYYLGDDTISVFEPIERNSGIAGGMFLKRSRVKKPGQEVFKSELSEYIKAEELYIGVTVNVNGYLFRLLNADEYTLNYMEQNTDKYPFSNLKLALQKLKQEEGKSRELKQVFKAADSKHTNMVDYNTFRDILMSLTVGNLAEQEFVTIARHYRVPEGTCSDMDFLIALAHEKFKKNMFENFDTFIYSCVYEDREKKNVLPTKDIKRLCKSSRLPLSDDLLESLLSRFEDSEKQIDYKSFFSALNWRKNPVPELQPASYLKERCEDVWLGMPSPIPAKYIDYWTFLKDAFGLEEE
B4: Nucleoporin p54 (Homo sapiens), Q7Z3B4 (parent)
chain: MAFNFGAPSGTSGTAAATAAPAGGFGGFGTTSTTAGSAFSFSAPTNTGTTGLFGGTQNKGFGFGTGFGTTTGTSTGLGTGLGTGLGFGGFNTQQQQQTTLGGLFSQPTQAPTQSNQLINTASALSAPTLLGDERDAILAKWNQLQAFWGTGKGYFNNNIPPVEFTQENPFCRFKAVGYSCMPSNKDEDGLVVLVFNKKETEIRSQQQQLVESLHKVLGGNQTLTVNVEGTKTLPDDQTEVVIYVVERSPNGTSRRVPATTLYAHFEQANIKTQLQQLGVTLSMTRTELSPAQIKQLLQNPPAGVDPIIWEQAKVDNPDSEKLIPVPMVGFKELLRRLKVQDQMTKQHQTRLDIISEDISELQKNQTTSVAKIAQYKRKLMDLSHRTLQVLIKQEIQRKSGYAIQADEEQLRVQLDTIQGELNAPTQFKGRLNELMSQIRMQNHFGAVRSEERYYIDADLLREIKQHLKQQQEGLSHLISIIKDDLEDIKLVEHGLNETIHIRGGVFS
B5: Keratin, type I cuticular Ha8 (Homo sapiens), O76015 (parent)
chain: MTSSYSSSSCPLGCTMAPGARNVSVSPIDIGCQPGAEANIAPMCLLANVAHANRVRVGSTPLGRPSLCLPPTCHTACPLPGTCHIPGNIGICGAYGENTLNGHEKETMQFLNDRLANYLEKVRQLEQENAELEATLLERSKCHESTVCPDYQSYFHTIEELQQKILCSKAENARLIVQIDNAKLAADDFRIKLESERSLRQLVEADKCGTQKLLDDATLAKADLEAQQESLKEEQLSLKSNHEQEVKILRSQLGEKLRIELDIEPTIDLNRVLGEMRAQYEAMLETNRQDVEQWFQAQSEGISLQDMSCSEELQCCQSEILELRCTVNALEVERQAQHTLKDCLQNSLCEAEDRFGTELAQMQSLISNVEEQLSEIRADLERQNQEYQVLLDVKTRLENEIATYRNLLESEDCKLPCNPCSTSPSCVTAPCAPRPSCGPCTTCGPTCGASTTGSRF
B6: Tuftelin-interacting protein 11 (Homo sapiens), Q9UBB9 (parent)
chain: MSLSHLYRDGEGRIDDDDDERENFEITDWDLQNEFNPNRQRHWQTKEEATYGVWAERDSDDERPSFGGKRARDYSAPVNFISAGLKKGAAEEAELEDSDDEEKPVKQDDFPKDFGPRKLKTGGNFKPSQKGFAGGTKSFMDFGSWERHTKGIGQKLLQKMGYVPGRGLGKNAQGIINPIEAKQRKGKGAVGAYGSERTTQSMQDFPVVDSEEEAEEEFQKELSQWRKDPSGSKKKPKYSYKTVEELKAKGRISKKLTAPQKELSQVKVIDMTGREQKVYYSYSQISHKHNVPDDGLPLQSQQLPQSGKEAKAPGFALPELEHNLQLLIDLTEQEIIQNDRQLQYERDMVVNLFHELEKMTEVLDHEERVISNLSKVLEMVEECERRMQPDCSNPLTLDECARIFETLQDKYYEEYRMSDRVDLAVAIVYPLMKEYFKEWDPLKDCTYGTEIISKWKSLLENDQLLSHGGQDLSADAFHRLIWEVWMPFVRNIVTQWQPRNCDPMVDFLDSWVHIIPVWILDNILDQLIFPKLQKEVENWNPLTDTVPIHSWIHPWLPLMQARLEPLYSPIRSKLSSALQKWHPSDSSAKLILQPWKDVFTPGSWEAFMVKNIVPKLGMCLGELVINPHQQHMDAFYWVIDWEGMISVSSLVGLLEKHFFPKWLQVLCSWLSNSPNYEEITKWYLGWKSMFSDQVLAHPSVKDKFNEALDIMNRAVSSNVGAYMQPGARENIAYLTHTERRKDFQYEAMQERREAENMAQRGIGVAASSVPMNFKDLIETKAEEHNIVFMPVIGKRHEGKQLYTFGRIVIYIDRGVVFVQGEKTWVPTSLQSLIDMAK
partner: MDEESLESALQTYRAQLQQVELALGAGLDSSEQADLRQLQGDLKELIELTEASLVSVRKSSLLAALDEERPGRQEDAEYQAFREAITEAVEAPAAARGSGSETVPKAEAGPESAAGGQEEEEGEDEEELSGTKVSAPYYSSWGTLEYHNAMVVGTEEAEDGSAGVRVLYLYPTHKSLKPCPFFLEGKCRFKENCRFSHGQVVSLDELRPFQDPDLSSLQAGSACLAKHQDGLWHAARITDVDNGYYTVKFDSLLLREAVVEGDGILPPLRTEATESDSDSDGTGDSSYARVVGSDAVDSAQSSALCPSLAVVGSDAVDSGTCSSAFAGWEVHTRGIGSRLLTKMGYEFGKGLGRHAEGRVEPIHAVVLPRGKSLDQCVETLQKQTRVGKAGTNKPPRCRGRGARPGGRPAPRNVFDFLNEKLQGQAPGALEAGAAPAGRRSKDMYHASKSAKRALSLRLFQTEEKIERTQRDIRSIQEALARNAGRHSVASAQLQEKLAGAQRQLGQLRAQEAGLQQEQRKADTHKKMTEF

Variants of: B1
Details: with rab2a_human RAB2A

Row | Variant | effect of a mutation on the interaction
1 | S40L | with no effect

Variants of: B2
Details: with tfp11_human TFIP11, Q9UBB9

Row | Variant | effect of a mutation on the interaction
2 | K303R | with no effect
3 | E216G | with no effect
4 | G263A | with no effect

Variants of: B2
Details: with tacc1_human TACC1, O75410
Chain of tacc1_human TACC1, O75410 (O75410 whole entry): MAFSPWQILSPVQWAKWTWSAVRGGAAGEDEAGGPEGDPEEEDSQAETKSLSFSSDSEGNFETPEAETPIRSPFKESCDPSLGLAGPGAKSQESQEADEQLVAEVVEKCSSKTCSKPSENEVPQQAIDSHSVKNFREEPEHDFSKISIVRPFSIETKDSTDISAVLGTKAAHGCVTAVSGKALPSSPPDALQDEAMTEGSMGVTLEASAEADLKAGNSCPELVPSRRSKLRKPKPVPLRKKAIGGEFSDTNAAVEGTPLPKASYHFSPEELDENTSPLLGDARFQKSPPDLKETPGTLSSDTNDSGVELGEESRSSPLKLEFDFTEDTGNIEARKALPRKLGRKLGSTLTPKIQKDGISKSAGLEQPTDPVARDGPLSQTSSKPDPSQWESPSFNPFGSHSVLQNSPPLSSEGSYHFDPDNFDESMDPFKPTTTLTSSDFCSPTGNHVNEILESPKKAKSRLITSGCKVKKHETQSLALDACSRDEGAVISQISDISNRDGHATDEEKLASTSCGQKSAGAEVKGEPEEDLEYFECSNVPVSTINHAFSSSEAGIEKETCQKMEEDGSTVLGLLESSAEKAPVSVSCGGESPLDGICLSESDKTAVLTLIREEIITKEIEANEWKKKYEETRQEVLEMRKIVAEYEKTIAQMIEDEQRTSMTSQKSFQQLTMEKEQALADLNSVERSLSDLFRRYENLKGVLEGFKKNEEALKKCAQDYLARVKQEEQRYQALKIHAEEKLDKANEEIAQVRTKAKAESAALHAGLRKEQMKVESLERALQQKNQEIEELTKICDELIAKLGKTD

Row | Variant | effect of a mutation on the interaction
5 | K303R | with no effect
6 | E216G | with no effect
7 | G263A | with no effect

Variants of: B2
Details: with ldoc1_human LDOC1, O95751
Chain of ldoc1_human LDOC1, O95751 (O95751 whole entry): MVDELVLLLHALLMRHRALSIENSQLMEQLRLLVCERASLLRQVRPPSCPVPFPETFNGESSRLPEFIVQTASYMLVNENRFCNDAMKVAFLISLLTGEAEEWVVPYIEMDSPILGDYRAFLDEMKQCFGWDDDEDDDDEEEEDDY

Row | Variant | effect of a mutation on the interaction
8 | K303R | with no effect
9 | E216G | with no effect
10 | G263A | with no effect

Variants of: B3
Details: with plod3_human PLOD3, O60568
Chain of plod3_human PLOD3, O60568 (O60568 whole entry): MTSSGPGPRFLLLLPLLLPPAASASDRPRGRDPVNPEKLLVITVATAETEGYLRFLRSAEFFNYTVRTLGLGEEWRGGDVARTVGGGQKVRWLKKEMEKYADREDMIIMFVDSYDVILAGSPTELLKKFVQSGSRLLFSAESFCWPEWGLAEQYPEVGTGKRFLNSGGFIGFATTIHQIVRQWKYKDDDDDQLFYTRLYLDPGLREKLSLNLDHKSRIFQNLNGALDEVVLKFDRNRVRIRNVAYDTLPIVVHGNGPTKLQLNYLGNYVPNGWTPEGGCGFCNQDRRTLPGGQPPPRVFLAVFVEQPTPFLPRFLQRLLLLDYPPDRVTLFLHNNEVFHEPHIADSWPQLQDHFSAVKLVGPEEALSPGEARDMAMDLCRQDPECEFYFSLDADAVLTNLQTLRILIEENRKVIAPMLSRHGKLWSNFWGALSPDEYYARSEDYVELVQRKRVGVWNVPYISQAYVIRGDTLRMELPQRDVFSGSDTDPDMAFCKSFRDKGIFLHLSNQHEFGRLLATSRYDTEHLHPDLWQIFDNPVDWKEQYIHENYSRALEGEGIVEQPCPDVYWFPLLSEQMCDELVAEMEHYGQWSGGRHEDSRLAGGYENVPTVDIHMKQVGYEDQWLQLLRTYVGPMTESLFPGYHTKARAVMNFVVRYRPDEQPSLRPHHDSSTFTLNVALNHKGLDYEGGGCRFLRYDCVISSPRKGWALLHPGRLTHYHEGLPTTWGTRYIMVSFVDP

Row | Variant | effect of a mutation on the interaction
11 | E507Q | disrupting interaction strength

Variants of: B3
Details: with ercc3_human ERCC3, P19447
Chain of ercc3_human ERCC3, P19447 (P19447 whole entry): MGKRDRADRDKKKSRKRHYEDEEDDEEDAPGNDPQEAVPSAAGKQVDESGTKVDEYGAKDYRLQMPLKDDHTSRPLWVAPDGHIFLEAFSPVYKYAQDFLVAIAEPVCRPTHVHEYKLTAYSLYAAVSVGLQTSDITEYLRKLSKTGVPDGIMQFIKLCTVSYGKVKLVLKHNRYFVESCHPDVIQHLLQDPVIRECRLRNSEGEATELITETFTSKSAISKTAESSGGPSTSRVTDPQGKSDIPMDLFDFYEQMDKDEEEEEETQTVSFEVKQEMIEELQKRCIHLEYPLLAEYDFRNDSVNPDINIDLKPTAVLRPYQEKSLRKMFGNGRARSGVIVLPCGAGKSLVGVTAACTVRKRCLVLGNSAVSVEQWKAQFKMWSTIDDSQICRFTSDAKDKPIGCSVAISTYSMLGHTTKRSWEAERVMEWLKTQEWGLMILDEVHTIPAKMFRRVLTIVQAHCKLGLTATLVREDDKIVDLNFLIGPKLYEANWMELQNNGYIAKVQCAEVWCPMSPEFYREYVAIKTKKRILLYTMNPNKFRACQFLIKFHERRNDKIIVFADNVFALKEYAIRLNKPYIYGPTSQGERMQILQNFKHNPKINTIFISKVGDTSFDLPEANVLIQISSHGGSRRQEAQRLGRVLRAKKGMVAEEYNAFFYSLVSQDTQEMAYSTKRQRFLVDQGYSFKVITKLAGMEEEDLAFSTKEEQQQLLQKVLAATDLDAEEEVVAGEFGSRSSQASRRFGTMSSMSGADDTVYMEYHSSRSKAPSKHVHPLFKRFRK

Row | Variant | effect of a mutation on the interaction
12 | V376I | with no effect

Variants of: B3
Details: with ptk6_human PTK6, Q13882

Row | Variant | effect of a mutation on the interaction
13 | V376I | with no effect

Variants of: B3
Details: with mk09_human MAPK9, P45984

Row | Variant | effect of a mutation on the interaction
14 | V376I | with no effect

Variants of: B3
Details: with plod3_human PLOD3, O60568
Remark: another data set of the same source

Row | Variant | effect of a mutation on the interaction
15 | V376I | with no effect

Variants of: B4
Details: with nup62_human NUP62, P37198
Chain of nup62_human NUP62, P37198 (P37198 whole entry): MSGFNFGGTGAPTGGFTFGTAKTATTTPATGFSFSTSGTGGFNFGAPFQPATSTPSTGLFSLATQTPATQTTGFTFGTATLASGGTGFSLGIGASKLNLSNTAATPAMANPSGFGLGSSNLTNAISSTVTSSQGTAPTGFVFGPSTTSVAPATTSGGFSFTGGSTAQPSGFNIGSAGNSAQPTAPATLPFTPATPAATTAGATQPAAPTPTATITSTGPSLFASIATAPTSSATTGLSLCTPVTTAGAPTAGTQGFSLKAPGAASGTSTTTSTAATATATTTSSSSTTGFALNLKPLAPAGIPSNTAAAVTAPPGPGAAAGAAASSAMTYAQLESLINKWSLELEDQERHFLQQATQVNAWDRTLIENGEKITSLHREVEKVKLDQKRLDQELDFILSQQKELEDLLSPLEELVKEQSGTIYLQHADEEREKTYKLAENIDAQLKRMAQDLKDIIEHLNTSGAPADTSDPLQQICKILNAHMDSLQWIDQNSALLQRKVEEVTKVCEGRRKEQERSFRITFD

Row | Variant | effect of a mutation on the interaction
16 | N250S | with no effect
17 | R385K | with no effect

Variants of: B4
Details: with nup58_human NUP58, Q9BVL2
Chain of nup58_human NUP58, Q9BVL2 (Q9BVL2 whole entry): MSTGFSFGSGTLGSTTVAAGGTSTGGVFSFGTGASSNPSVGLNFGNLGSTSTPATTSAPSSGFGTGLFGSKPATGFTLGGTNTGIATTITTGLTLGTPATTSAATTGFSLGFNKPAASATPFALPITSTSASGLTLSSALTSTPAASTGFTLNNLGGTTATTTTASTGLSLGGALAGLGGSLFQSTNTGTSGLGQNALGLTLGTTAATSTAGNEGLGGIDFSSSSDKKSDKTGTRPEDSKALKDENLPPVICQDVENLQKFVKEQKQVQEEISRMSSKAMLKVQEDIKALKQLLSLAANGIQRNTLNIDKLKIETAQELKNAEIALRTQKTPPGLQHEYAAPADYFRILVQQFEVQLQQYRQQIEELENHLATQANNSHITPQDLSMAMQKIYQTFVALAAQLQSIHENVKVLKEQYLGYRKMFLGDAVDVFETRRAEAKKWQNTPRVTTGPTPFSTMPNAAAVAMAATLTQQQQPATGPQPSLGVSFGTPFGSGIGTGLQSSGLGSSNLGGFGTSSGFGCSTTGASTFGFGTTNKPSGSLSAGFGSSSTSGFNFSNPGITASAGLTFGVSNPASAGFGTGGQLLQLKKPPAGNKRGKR

Row | Variant | effect of a mutation on the interaction
18 | N250S | with no effect
19 | R385K | with no effect

Variants of: B4
Details: with hgs_human HGS

Row | Variant | effect of a mutation on the interaction
20 | N250S | with no effect
21 | R385K | with no effect

Variants of: B4
Details: with KRT15, P19012
Chain of KRT15, P19012 (P19012 whole entry): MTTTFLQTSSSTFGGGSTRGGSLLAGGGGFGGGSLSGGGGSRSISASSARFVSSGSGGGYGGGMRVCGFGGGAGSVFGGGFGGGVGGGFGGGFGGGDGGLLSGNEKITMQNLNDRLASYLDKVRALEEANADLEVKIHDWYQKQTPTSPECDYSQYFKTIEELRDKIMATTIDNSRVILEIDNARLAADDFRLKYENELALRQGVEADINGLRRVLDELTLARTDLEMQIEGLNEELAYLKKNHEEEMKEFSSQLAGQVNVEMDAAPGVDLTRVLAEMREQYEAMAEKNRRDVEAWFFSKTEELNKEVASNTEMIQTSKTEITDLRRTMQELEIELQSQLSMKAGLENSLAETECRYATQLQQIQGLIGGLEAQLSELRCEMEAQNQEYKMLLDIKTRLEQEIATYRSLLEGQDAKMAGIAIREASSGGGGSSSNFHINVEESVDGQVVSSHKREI

Row | Variant | effect of a mutation on the interaction
22 | N250S | with no effect
23 | R385K | with no effect

Variants of: B5
Details: with k2c4_human KRT4, P19013
Chain of k2c4_human KRT4, P19013 (P19013 whole entry): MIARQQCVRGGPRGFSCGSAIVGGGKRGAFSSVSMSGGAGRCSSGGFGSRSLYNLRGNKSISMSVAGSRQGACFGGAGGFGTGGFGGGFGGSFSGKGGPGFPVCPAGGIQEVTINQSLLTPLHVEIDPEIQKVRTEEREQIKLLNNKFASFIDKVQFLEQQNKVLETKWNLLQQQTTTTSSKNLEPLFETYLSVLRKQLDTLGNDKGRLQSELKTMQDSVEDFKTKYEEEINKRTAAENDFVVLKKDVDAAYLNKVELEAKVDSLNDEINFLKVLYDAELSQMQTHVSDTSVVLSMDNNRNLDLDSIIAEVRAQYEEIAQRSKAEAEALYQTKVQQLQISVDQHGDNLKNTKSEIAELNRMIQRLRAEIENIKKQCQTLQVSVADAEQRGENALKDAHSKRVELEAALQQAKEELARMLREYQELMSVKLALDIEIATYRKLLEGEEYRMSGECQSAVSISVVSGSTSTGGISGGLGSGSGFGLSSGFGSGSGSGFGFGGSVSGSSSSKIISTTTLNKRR

Row | Variant | effect of a mutation on the interaction
24 | A205S | with no effect

Variants of: B5
Details: with k2c8_human KRT8, P05787

Row | Variant | effect of a mutation on the interaction
25 | A205S | with no effect

Variants of: B5
Details: with KRT6A

Row | Variant | effect of a mutation on the interaction
26 | A205S | with no effect

Variants of: B5
Details: with k22e_human KRT2, P35908

Row | Variant | effect of a mutation on the interaction
27 | A205S | with no effect

Variants of: B6
Details: with zgpat_human ZGPAT

Row | Variant | effect of a mutation on the interaction
28 | S688L | with no effect
